In patent US20060148038A1 (INST NAT L DE LA SANTE ET DE LA RECH MEDICALE, published 2006):

Target: T1, antithrombin (purified from human plasma) (human, UniProt P01008 33-464)
T1 construct: mature
Experiment: SDS-PAGE with Coomassie blue after incubation with antithrombin and heparin
Protocol: The incubation is sustained for one hour at 25° C., and the reaction mixture is analysed by polyacrylamide gel electrophoresis (10%, crosslinking 29/1), after denaturation and reduction of the sample. After staining with Coomassie blue, the presence of covalent complexes between the (inactivated) form of the factor X derivative and the antithrombin results in a decrease in the intensity of the band corresponding to antithrombin (60 kDa), a decrease in the intensity of the band corresponding to the activated form of the factor X derivative (31 kDa), and the appearance of a new band of higher molecular weight (approximately 100 kDa) corresponding to the covalent complex.

T1 sequence (P01008 33-464): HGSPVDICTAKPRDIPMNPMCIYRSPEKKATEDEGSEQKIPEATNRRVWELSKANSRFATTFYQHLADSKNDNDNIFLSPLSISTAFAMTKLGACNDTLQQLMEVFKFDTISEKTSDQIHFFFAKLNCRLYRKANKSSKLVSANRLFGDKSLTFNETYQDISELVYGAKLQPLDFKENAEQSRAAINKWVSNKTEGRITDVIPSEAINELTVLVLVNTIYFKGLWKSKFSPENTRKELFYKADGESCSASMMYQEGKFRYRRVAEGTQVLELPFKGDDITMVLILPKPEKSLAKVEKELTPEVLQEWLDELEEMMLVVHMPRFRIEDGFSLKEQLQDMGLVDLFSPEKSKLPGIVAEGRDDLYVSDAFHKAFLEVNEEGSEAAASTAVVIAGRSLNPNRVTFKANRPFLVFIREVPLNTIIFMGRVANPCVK

binding result: no binding
B1: activated form of the GDX-SFR derivative (enzyme, human)
light: EDQVDPRLIDGKDGDQCETSPCQNQGKCKDGLGEYTCTCLEGFEGKNCELFTRKLCSLDNGDCDQFCHEEQNSVVCSCARGYTLADNGKACIPTGPYPCGKQTLER
heavy: SFRGQECKDGECPWQALLINEENEGFCGGTILSEFYILTAAHCLYQAKRFKVRVGDRNTEQEEGGEAVHEVEVVIKHNRFTKETYDFDIAVLRLKTPITFRMNVAPACLPERDWAESTLMTQKTGIVSGFGRTHEKGRQSTRLKMLEVPYVDRNSCKLSSSFIITQNMFCAGYDTKQEDACQGDSGGPHVTRFKDTYFVTGIVSWGEGCARKGKYGIYTKVTAFLKWIDRSMKTRGLPKAKSHAPEVITSSPLKEQKLISEEDLN
notes: domain: two EGF domains;domain: catalytic domain
